According to paper PMC12610585:

Substrate: O=[N+]([O-])c1ccc(O[C@H]2O[C@H](CO)[C@H](O)[C@H](O)[C@H]2O)cc1
Test: purified protein
Settings: optimized conditions: 37 °C, pH 6.0, 10 min, 0-8 mM substrate

B1: Amuc_0517 (Akkermansia muciniphila ATCC BAA-835) (protein)
chain: QPRTTAILPVPGEKACRLPLPPYQAFCWFSADRGRWPGDGNRVLPWFGRTAPGNLLDSKPNPSTAKPGDHAMFALFHLKDGNFMAVLPVAAPDSLAWLKLERDGTFLVEAGSLGTSPAKPQAVLAVTATDKDIYRACSAVWDKALSLPFIKGRTLPREKKIYPEPFKYLGWCSWEQYKKNISSKLLEETARKLEASPVPVRWMLVDDGFQTQERLQLVSFQPRQDQFPRGWQPLMKHKSPKLKWMGLWHCYYGLWNGIHPRHRLDDETARGLVRTAKGKILPGDGSGGAGAFYTPFLQSVKDTGFDFVKIDVQAEYLKHADGLDNPVRHNTKCSEALEQACLKTGLSLVNCMAQGTVNIQNTRYSAVTRCSIDYKLGDEAMAKSHILQSYANTLWLGQTVWPDHDMFHSTDPACARLMAVSKAVSGGPVYLSDPADKLNPENIMPLVWSDGLLLRPLAPAVPLPDSVFPDALNENRLYRVIAPLPGQSAAVVVYNLKHPSPAEPVRGKISLEDYKNAAALLNGNAAEAYASLPAEGIAAYSAEGGRALTPAQPDLDVELTGFKDRLFIMAPIVQGWAVIGRRDKFLSPCALVSAPGYRENGLRFRVKESGPVVIWRGKGPVKAGNTPVRNLGNGFYELQFPVSDHPLDITVTAE
Km: 8.2 mM
